According to paper PMC12507662 (Nature, 2025):

Target: postfusion gB (ectodomain of wild type) (herpes simplex virus 1 (HSV-1), UniProt A1Z0P7)
Test: grating-coupled interferometry; gB immobilised by C-terminal Twin-Strep-tag on Strep-Tactin XT chip (400 pg mm^-2); 25 °C; 20 mM HEPES pH 8.0, 300 mM NaCl; waveRAPID tight binder protocol, 200 nM Nb1_gbHSV, regeneration with 3 M GuHCl
Details: both partners purified

B1: Nb1_gbHSV (VHH)
VHH: QVQLVESGGGSVQPGGSLRLSCAASASGRLSMSGALGWYRQVQGKSRELVATITDRSSTNYADSVKGRFTISIDDAENTMYLQMNSLKPEDTGVYYCNARWRGMNVWGKGTRVTVSS
notes: alpaca VHH from an immune library; Unlabelled form used for grating-coupled interferometry, cryo-EM with stabilized HSV-1 gB and plaque reduction; also called the nanobody; neutralizing nanobody; source: E. coli SHuffle Express, cytoplasmic, purified (Ni2+ chelate column, eluted by cleaving the tag with Ulp1p)
Q: Does B1 bind?
A: no binding (tested: 200 nM)
